The values that follow come from US20080248034A1 (MORPHOTEK, published 2008).

This test deals with tetanus toxoid (TT) (UniProt P04958 2-1315). The test can be described thus: antigen-specific ELISA, coated at 1:500 dilution (FIG. 4B). On the technique in general: An ELISA detects its analyte on a solid surface through an enzyme-linked reagent.
tetanus toxoid (TT), sequence (P04958 2-457 limits assumed, chain 1 of 2): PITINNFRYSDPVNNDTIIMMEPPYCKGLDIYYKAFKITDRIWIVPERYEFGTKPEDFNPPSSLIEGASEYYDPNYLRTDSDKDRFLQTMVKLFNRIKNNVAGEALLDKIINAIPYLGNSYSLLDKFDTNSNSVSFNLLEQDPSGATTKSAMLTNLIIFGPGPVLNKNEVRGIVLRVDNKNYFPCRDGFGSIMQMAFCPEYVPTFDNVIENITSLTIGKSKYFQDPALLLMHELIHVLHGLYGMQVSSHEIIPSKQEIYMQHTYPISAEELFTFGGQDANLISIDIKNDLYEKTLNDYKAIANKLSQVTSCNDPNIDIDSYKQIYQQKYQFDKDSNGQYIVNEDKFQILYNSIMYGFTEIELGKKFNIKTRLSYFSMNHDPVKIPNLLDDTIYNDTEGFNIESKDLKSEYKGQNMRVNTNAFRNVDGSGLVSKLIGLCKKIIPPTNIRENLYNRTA
tetanus toxoid (TT), sequence (P04958 458-1315 limits assumed, chain 2 of 2): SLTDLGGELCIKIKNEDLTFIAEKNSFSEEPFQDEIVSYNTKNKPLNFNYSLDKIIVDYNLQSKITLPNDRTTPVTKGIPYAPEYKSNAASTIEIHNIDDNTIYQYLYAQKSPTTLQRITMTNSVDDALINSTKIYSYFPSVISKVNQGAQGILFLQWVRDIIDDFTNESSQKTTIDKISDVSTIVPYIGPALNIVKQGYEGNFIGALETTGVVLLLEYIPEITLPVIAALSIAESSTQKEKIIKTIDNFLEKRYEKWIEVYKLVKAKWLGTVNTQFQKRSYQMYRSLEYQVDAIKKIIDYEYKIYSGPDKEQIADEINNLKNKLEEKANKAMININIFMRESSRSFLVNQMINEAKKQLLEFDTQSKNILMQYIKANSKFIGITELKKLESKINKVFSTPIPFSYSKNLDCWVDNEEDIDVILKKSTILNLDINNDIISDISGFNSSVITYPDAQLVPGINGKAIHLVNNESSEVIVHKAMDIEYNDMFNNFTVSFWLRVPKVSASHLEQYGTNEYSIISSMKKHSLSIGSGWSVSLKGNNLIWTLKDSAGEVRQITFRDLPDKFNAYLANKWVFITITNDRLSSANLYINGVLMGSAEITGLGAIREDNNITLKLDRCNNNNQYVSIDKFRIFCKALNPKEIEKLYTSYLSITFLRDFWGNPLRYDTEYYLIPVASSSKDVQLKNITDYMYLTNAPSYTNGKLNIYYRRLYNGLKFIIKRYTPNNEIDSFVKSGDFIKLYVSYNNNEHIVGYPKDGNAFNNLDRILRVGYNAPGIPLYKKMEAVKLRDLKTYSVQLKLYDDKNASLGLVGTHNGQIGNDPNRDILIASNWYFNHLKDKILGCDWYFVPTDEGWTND

B1: Fc-TEM1 (soluble recombinant endosialin: full-length TEM1 extracellular domain fused to monomeric murine IgG2b Fc) (Fc fusion, human)
chain: QDPWAAEPRAACGPSSCYALFPRRRTFLEAWRACRELGGDLATPRTPEEAQRVDSLVGAGPASRLLWIGLQRQARQCQLQRPLRGFTWTTGDQDTAFTNWAQPASGGPCPAQRCVALEASGEHRWLEGSCTLAVDGYLCQFGFEGACPALQDEAGQAGPAVYTTPFHLVSTEFEWLPFGSVAAVQCQAGRGASLLCVKQPEGGVGWSRAGPLCLGTGCSPDNGGCEHECVEEVDGHVSCRCTEGFRLAADGRSCEDPCAQAPCEQQCEPGGPQGYSCHCRLGFRPAEDDPHRCVDTDECQIAGVCQQMCVNYVGGFECYCSEGHELEADGISCSPAGAMGAQASQDLGDELLDDGEDEEDEDEAWKAFNGGWTEMPGILWMEPTQPPDFALAYRPSFPEDREPQIPYPEPTWPPPLSAPRVPYHSSVLSVTRPVVVSATHPTLPSAHQPPVIPATHPALSRDHQIPVIAANYPDLPSAYQPGILSVSHSAQPPAHQPPMISTKYPELFPAHQSPMFPDTRVAGTQTTTHLPGIPPNHAPLVTTLGAQLPPQAPDALVLRTQATQLPIIPTAQPSLTTTSRSPVSPAHQISVPAATQPAALPTLLPSQSPTNQTSPISPTHPHSKAPQIPREDGPSPKLALWLPSPAPTAAPTALGEAGLAEHSQRDDRWLDDDD
notes: extracellular domain; Monomeric secreted fusion protein made in CHO cells; also called TEM1-Fcγ; not shown: murine IgG2b Fcγ domain (hinge through CH3), modified: the four cysteine residues responsible for inter-heavy chain disu
For the molecule B1, the binding result is listed as “no binding (tested: 5, 10, 50 ug/ml)”.
